Experimental data: patent US20120258099A1
Ends that are not written are not given here. GST = glutathione S-transferase tag encoded by vector pGEX-5X2

Tests used:
MBP-Tgat (aa 1-255) [1] = biological target: MBP-Tgat (aa 1-255) (UniProt O75962); experiment: cell-based or functional assay
MBP-Tgat (aa 1-255) [2] = biological target: MBP-Tgat (aa 1-255) (UniProt O75962); experiment: FRET mant-GTP nucleotide exchange kinetics; kobs against GST-TRIP peptide concentration (up to 100 µM), hyperbolic fit; RhoA 1 µM, Tgat 0.5 µM

| efficiency at inhibiting the exchange activity of Tgat, against TRIPα (MBP-Tgat (aa 1-255) [1]) [fold] | Ki (MBP-Tgat (aa 1-255) [2]) [µM] | Binder |
| --- | --- | --- |
| 15 | 7.4 | AREGADGAICGYNLATLVMLGPSERVFCPLCGPCSSDIYELM (peptide, not shown: a dimerising Fc or GST; large carriers; small tags and cut ends, not fully specified (N-terminus); cysteine pairing not given here; also: fused to GST, GST carrier and linker letters not given here) [GST-TRIPE32G] |
| 15 | 5.1 | AREGADGAICGYNLAMSVMLGPSERVFCPLCEPCSSDIYELM (peptide, not shown: a dimerising Fc or GST; large carriers; small tags and cut ends, not fully specified (N-terminus); cysteine pairing not given here; also: fused to GST, GST carrier and linker letters not given here) [GST-TRIPT16M/L17S] |
|  | 89 | {GST}-AREGADGAICGYNLATLVMLGPSERVFCPLCEPCSSDIYELM (peptide, not shown: a dimerising Fc or GST, cysteine pairing not given here; also: fused to GST, GST carrier and linker letters not given here) [GST-TRIPα] |
